Experimental data taken from patent publication US20050032689A1, “Methods for treatment or diagnosis of disease or disorders associated with an APB domain” (New York University, priority 1994, published 2005).

T1: binding of Shc 1-209 to the EGF receptor (Mus musculus, UniProt P98083)
T1 construct: we generated Shc 1-209 as a GST fusion protein; made in house; host or cells: bacteria (pGSTag vector)
T1 sequence (P98083 111-319): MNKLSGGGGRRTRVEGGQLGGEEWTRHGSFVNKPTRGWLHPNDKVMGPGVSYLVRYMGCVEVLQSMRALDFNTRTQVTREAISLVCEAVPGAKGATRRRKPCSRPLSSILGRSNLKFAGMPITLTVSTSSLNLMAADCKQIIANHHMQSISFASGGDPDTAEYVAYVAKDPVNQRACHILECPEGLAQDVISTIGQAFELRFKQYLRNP


Columns and labels:
[1] = biological target: T2, binding of the Grb7 SH2 domain to EGF receptor (Mus musculus, UniProt Q03160); test: Phosphotyrosine inhibition of Grb7 SH2 domain binding to EGF receptor; conditions: 30 mM phosphotyrosine; results not shown
T2 construct: made in house; host or cells: bacteria
T2 sequence (Q03160 434-530 limits assumed): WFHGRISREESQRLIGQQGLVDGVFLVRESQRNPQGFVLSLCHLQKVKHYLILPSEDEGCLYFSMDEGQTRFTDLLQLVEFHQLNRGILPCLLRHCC
From the text: (§1) Accordingly we examined the binding of the Shc amino terminus (hereafter referred to as Shc 1-209) in further detail. First we determined if the binding of Shc 1-209 was dependent on EGF receptor activation. To perform these studies we generated Shc 1-209 as a GST fusion protein and examined its ability to bind EGF receptor from lysates of NIH 3T3 cells. […] We asked if this binding was dependent on receptor autophosphorylation. EGF receptor was immunoprecipitated from unstimulated cells and then tyrosine-phosphorylated in vitro by adding Mn^2+ and ATP. […] To confirm that the binding was dependent on autophosphorylation, we examined the binding of Shc 1-209 to EGF receptor mutants lacking autophosphorylation sites. […] This may represent a difference in the affinity of interactions or a basic difference in the molecular mechanism of EGF receptor interaction with Shc 1-209 versus SH2 domains.

[2] = biological target: T1, binding of Shc 1-209 to the EGF receptor; test: Phosphotyrosine inhibition of Shc 1-209 binding to EGF receptor; conditions: 30 mM phosphotyrosine; results not shown
From the text: as §1

[3] = system: HER2/neu (HER1/2 chimera); test: Binding of GST-Shc fusion proteins to HER1/2 chimera from NIH 3T3 lysates, anti-phosphotyrosine blot; conditions: EGF-stimulated NIH 3T3 lysates
Experimental: FIGS. 4A, 4B, 4C and 4D. Binding of Shc fragments to growth factor receptors. A, schematic diagram illustrating the Shc fragments used in binding studies. Full length murine p52^shc is indicated in (i) while (ii)-(vi) were generated as GST fusion proteins for use in receptor binding studies. B, association of various GST fusion proteins with activated EGF receptor (EGFR). Binding was performed as in FIG. 2A with the exception that all lysates were stimulated with EGF. All studies used 3 μg of fusion proteins except for the Shc SH2 where 10 μg was used. Immunoblotting was performed with anti-phosphotyrosine. C, binding of Shc fusion proteins to NIH 3T3 cells expressing a HER1/2 chimera. This chimera consists of the EGF receptor extracellular binding domain and the intracellular region of HER2/neu. After stimulation of these cells with EGF (200 ng/ml) lysates were prepared and binding as well as blotting studies were performed as in B using anti-phosphotyrosine antibody. D, binding of Shc 1-209 to TrkA. Beads containing 10 μg of GST fusion proteins Shc 1-209, phospholipase C-γ (PLC-γ) SH2 (contains both N and C SH2 domains), or GST alone were added to lysates from 2×10^7 PC12 cells stimulated with 50 ng/ml nerve growth factor (lanes 1, 2, and 4). The binding of the same amount of lysate to 2 μg of anti-TrkA antibody is shown as a positive control and to indicate the position of TrkA on the blot (lane 3). Otherwise, the binding and blotting were performed as in B using anti-phosphotyrosine antibody. […] Protein concentration was determined by SDS-PAGE (polyacrylamide gel electrophoresis) using bovine serum albumin as a standard. […]

EGF receptor = biological target: T3, EGF receptor (Homo sapiens, UniProt P00533); test: Binding of GST fusion proteins on glutathione-agarose beads to EGF receptor from HER14 cell lysates, immunoblot; conditions: GST fusion protein, lysates of EGF-stimulated or unstimulated cells
T3 construct: expressed in transfected cells; host or cells: HER14 (NIH 3T3 cells expressing human EGF receptor)
Experimental: FIGS. 2A and 2B. Association of GST-Shc 1-209 with the EGF Receptor (EGFR). A, HER14 lysates from either EGF-stimulated (+) or unstimulated (−) cells (5×10^6 cells) were incubated with 3 μg of GST fusion protein immobilized on glutathione-agarose beads. The bound proteins were washed, subjected to SDS-PAGE, transferred to nitrocellulose and immunoblotted with anti-EGF receptor antibody, anti-C (anti-EGFR). HER14 lysate (4×10^5 cells) was run directly on the gel in lanes 5 and 6. B, unstimulated HER14 lysates (5×10^6 cells) were immunoprecipitated with anti-EGFR antibody (mAb 108). The immobilized receptor was then phosphorylated (+) by the addition of 5 mM MnCl2 and 50 μM ATP or left unphosphorylated (−) by adding MnCl2 alone. Bacterial lysates containing 5 μg of GST, GST-Grb7, and GST-Shc 1-209 were then diluted in 1 ml of 1% Triton X-100 lysis buffer, added to the immobilized receptor and incubated at 4° C. for 90 min. The bound proteins were washed and together with 40 μl of the post-binding supernatant separated by SDS-PAGE and transferred to nitrocellulose. The bound fractions (left panel) and supernatants (right panel) were immunoblotted with anti-GST. FIGS. 4A, 4B, 4C and 4D. Binding of Shc fragments to growth factor receptors. A, schematic diagram illustrating the Shc fragments used in binding studies. Full length murine p52^shc is indicated in (i) while (ii)-(vi) were generated as GST fusion proteins for use in receptor binding studies. B, association of various GST fusion proteins with activated EGF receptor (EGFR). Binding was performed as in FIG. 2A with the exception that all lysates were stimulated with EGF. All studies used 3 μg of fusion proteins except for the Shc SH2 where 10 μg was used. Immunoblotting was performed with anti-phosphotyrosine. C, binding of Shc fusion proteins to NIH 3T3 cells expressing a HER1/2 chimera. This chimera consists of the EGF receptor extracellular binding domain and the intracellular region of HER2/neu. After stimulation of these cells with EGF (200 ng/ml) lysates were prepared and binding as well as blotting studies were performed as in B using anti-phosphotyrosine antibody. D, binding of Shc 1-209 to TrkA. Beads containing 10 μg of GST fusion proteins Shc 1-209, phospholipase C-γ (PLC-γ) SH2 (contains both N and C SH2 domains), or GST alone were added to lysates from 2×10^7 PC12 cells stimulated with 50 ng/ml nerve growth factor (lanes 1, 2, and 4). The binding of the same amount of lysate to 2 μg of anti-TrkA antibody is shown as a positive control and to indicate the position of TrkA on the blot (lane 3). Otherwise, the binding and blotting were performed as in B using anti-phosphotyrosine antibody. […]

inhibition of binding of the Grb7 SH2 domain to the EGF receptor [1]	inhibition of binding of Shc 1-209 to the EGF receptor [2]	Molecule	binding to HER2/neu [3]	binding to EGF receptor (EGF receptor)
completely inhibited	partially inhibit	N[C@@H](Cc1ccc(OP(=O)(O)O)cc1)C(=O)O [phosphotyrosine]	–	–
–	–	Shc 85-209: Shc construct with a more severe amino-terminal deletion, GST fusion protein (protein, UniProt P98083 85-209, looked up, fragment, GST fusion, Shc construct with a more severe amino-terminal deletion, GST fusion protein) GKAAEDGEGSAGAALRDSGLLPLLQDMNKLSGGGGRRTRVEGGQLGGEEWTRHGSFVNKPTRGWLHPNDKVMGPGVSYLVRYMGCVEVLQSMRALDFNTRTQVTREAISLVCEAVPGAKGATRRR	did not bind growth factor receptors	did not bind growth factor receptors
–	–	Shc 46-209: amino acids encoding the amino terminus of p46Shc, GST fusion protein (protein, UniProt P98083 46-209, looked up, fragment, GST fusion, amino acids encoding the amino terminus of p46Shc, GST fusion protein) LPPLPGDDSPTTLCSFFPRMSNLKLANPAGGRLGPKGEPGKAAEDGEGSAGAALRDSGLLPLLQDMNKLSGGGGRRTRVEGGQLGGEEWTRHGSFVNKPTRGWLHPNDKVMGPGVSYLVRYMGCVEVLQSMRALDFNTRTQVTREAISLVCEAVPGAKGATRRR	can bind both EGF receptor and HER2/neu receptor	can bind both EGF receptor and HER2/neu receptor
